T1: GST-fused ΔeIF5B(587–1220) (UniProt O60841 587-1220)
T1 construct: eukaryotic initiation factor 5B (eIF5B), residues 587–1220, lacking the N-terminal region; also called GST–eIF5B; GST–eIF5B (587–1220); source: E. coli BL21, purified
T1 sequence (looked up): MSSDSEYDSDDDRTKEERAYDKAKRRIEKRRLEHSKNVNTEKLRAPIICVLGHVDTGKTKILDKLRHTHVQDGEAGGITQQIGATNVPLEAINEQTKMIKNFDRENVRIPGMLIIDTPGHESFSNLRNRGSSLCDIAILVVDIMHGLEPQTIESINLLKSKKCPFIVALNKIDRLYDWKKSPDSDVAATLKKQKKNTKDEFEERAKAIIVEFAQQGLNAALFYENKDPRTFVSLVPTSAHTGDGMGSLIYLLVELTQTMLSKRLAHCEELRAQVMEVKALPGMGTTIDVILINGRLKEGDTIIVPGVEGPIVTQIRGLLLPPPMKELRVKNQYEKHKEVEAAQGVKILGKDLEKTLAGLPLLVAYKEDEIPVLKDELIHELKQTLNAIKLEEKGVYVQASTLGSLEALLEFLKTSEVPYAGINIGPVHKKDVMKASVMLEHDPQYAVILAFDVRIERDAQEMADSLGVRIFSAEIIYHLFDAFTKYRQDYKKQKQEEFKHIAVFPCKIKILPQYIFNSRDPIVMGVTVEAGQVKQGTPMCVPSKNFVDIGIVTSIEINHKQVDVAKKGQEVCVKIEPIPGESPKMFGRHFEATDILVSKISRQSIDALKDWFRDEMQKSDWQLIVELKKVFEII

T2: His-tagged eIF5B (587–1220) (UniProt O60841 587-1220)
T2 construct: eIF5B, residues 587–1220; The methods describe only the GST-fused eIF5B; also called purified eIF5B; source: purified
T2 sequence (looked up): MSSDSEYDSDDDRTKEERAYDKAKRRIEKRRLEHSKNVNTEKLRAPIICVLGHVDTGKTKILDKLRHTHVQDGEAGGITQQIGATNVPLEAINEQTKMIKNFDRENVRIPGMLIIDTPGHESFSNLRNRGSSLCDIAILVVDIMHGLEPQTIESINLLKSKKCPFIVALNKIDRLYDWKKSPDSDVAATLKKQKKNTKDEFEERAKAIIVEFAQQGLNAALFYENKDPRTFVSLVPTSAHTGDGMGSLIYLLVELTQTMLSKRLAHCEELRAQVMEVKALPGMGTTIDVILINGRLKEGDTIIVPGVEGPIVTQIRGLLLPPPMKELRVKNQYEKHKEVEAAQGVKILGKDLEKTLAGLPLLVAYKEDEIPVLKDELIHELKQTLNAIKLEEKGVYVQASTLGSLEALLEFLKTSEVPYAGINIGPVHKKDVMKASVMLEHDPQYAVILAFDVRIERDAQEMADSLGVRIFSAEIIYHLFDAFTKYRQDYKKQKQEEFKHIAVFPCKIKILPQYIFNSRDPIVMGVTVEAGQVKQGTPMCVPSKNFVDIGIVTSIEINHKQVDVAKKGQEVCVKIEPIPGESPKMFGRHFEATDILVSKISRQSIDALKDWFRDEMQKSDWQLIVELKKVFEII


Tests used:
[1] = biological target: T1, GST-fused ΔeIF5B(587–1220); experiment: pull-down; GST pull-down with recombinant proteins purified from E. coli extracts; GST fusions as bait, His–eIF2A detected by western blotting with anti-His; conditions: both partners purified
[2] = biological target: T2, His-tagged eIF5B (587–1220); experiment: co-IP; purified His-tagged eIF5B (587–1220) and GST-fused eIF2A (462–501) mixed; the former precipitated with an anti-His-conjugated resin; western blotting with anti-GST; conditions: both partners purified

Binder | binding result [1] | binding result [2]
His-tagged eIF2A (natural protein, human, UniProt Q9BY44 1-585, looked up, eukaryotic initiation factor 2A (eIF2A); also called His–eIF2A; eukaryotic initiation factor 2A; source: E. coli M15 (plasmid pQE31/His–eIF2A), purified) MAPSTPLLTVRGSEGLYMVNGPPHFTESTVFPRESGKNCKVCIFSKDGTLFAWGNGEKVNIISVTNKGLLHSFDLLKAVCLEFSPKNTVLATWQPYTTSKDGTAGIPNLQLYDVKTGTCLKSFIQKKMQNWCPSWSEDETLCARNVNNEVHFFENNNFNTIANKLHLQKINDFVLSPGPQPYKVAVYVPGSKGAPSFVRLYQYPNFAGPHAALANKSFFKADKVTMLWNKKATAVLVIASTDVDKTGASYYGEQTLHYIATNGESAVVQLPKNGPIYDVVWNSSSTEFCAVYGFMPAKATIFNLKCDPVFDFGTGPRNAAYYSPHGHILVLAGFGNLRGQMEVWDVKNYKLISKPVASDSTYFAWCPDGEHILTATCAPRLRVNNGYKIWHYTGSILHKYDVPSNAELWQVSWQPFLDGIFPAKTITYQAVPSEVPNEEPKVATAYRPPALRNKPITNSKLHEEEPPQNMKPQSGNDKPLSKTALKNQRKHEAKKAAKQEARSDKSPDLAPTPAPQSTPRNTVSQSISGDPEIDKKIKNLKKKLKAIEQLKEQAATGKQLEKNQLEKIQKETALLQELEDLELGI | binds | –
HEEEPPQNMKPQSGNDKPLSKTALKNQRKHEAKKAAKQEA (domain or fragment, human, UniProt Q9BY44 462-501, looked up, also called M domain; source: E. coli BL21, purified) [GST–eIF2A (462–501)] | – | binds

— publication PMC6208778, “eIF2A, an initiator tRNA carrier refractory to eIF2α kinases, functions synergistically with eIF5B” (Cellular and Molecular Life Sciences: CMLS, 2018)
